The Km is the concentration of substrate that gives half-maximal velocity.

Series [1] concerns DPP IV. The settings on record: read-out: Km of DPP IV for GLP-1; cited from earlier work.
Series [2] in a line: Stability of PGC-C18-GLP-1 formulation at 37°C. It is filed as physicochemical. The settings on record: GLP-1 without PGC-C18, liquid, 100mM glycine pH 6.8, 2mg/ml GLP-1, 37°C, total GLP-1 peak by reverse phase HPLC.
Series [3] in a line: Appearance. The settings on record: GLP-1 1mg/ml in neutral solution. It is filed as physicochemical.
Series [4] has as its target Porcine kidney DPP IV (Sus scrofa, UniProt P22411). The series is described as follows: DPP IV degradation of GLP-1 in the presence or absence of PGC or PGC-C18. Type of series: in vitro ADME. The note with it: 24 hours, 37°C, reverse phase HPLC, mean +/−SD, n=6.

Chain of Porcine kidney DPP IV (P22411 whole entry): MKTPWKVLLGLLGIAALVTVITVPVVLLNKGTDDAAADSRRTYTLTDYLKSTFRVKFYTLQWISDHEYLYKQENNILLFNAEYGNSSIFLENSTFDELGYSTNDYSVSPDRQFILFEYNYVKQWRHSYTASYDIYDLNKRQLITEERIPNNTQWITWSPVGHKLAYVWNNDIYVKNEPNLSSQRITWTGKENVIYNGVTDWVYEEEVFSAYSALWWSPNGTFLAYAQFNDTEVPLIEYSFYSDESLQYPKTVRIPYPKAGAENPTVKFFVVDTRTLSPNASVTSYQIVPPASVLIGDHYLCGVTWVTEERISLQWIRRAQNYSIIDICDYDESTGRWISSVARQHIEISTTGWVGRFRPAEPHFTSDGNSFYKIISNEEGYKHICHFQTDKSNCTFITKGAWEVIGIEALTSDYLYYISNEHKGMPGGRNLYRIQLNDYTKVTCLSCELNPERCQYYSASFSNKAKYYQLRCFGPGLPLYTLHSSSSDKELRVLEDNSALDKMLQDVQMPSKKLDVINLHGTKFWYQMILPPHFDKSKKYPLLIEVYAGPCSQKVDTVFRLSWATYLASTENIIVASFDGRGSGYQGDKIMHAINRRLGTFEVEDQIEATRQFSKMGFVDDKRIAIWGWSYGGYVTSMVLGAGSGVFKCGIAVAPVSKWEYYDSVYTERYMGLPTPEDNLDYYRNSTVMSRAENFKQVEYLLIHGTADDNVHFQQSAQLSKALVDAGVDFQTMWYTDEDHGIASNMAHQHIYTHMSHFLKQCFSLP

For Glucagon-like peptide-1 [GLP-1], the Michaelis constant (Km) in series [1] was 36 µM. The “GLP-1 broken down within a month” value in series [2] is reported as “greater than 10%”. The “appearance of solution when heated to 50°C” value in series [3] (50°C) is listed as “quite clear”. Moreover, in series [3] (cooled from 50°C to room temperature), the “appearance of solution as it cools down to room temperature” value is “turns cloudy and less soluble”. Also, the “GLP-1 degraded by DPP IV in the presence of the carrier PGC-C18” value in series [4] (1mg/ml GLP-1 + 10mg/ml PGC-C18 (1:10 w/w), PBS pH 7.4, 1.25mU/mL DPP IV) was 26+/−2%. Moreover, in series [4] (1mg/ml GLP-1, PBS pH 7.4, 1.25mU/mL DPP IV), the “GLP-1 degraded by DPP IV, without any carrier” value is 58+/−5%.

(Values after article PMC3247650 (Pharmaceutical research, 2011).)
